Laboratory results: patent publication US20090305309A1

Target: Src substrate peptide … derived from p130cas, tyrosine-phosphorylated by Src
Assay: cell-based or functional assay

Substance: c-Src SH2 domain of the Src reporter
- cyan-to-yellow emission ratio of the purified Src reporter after in vitro phosphorylation by Src: 25%
- emission ratio change of the Src reporter in HeLa cells on EGF stimulation: 25 to 35%
- emission ratio change of the monomeric (A206K CFP/YFP) Src reporter in response to Src kinase in vitro: 43%
